From US5723299

Key:
[1] = biological target: human somatostatin receptor SSTR1 (human); assay: radioligand binding to CHO cells transfected with human SSTR1 in the presence of 1 µM somatostatin-14
[2] = biological target: mouse somatostatin receptor SSTR2 (mouse); assay: radioligand binding to CHO cells transfected with mouse SSTR2 in the presence of 1 µM somatostatin-14
[3] = biological target: human somatostatin receptor SSTR1 (human); assay: radioligand binding to CHO cells transfected with human SSTR1, gamma counting
[4] = biological target: mouse somatostatin receptor SSTR2 (mouse); assay: radioligand binding to CHO cells transfected with mouse SSTR2, gamma counting

non-specific binding (radiolabeled ligand bound in the presence of 1 µM somatostatin-14) [1]: 225 cpm | non-specific binding (radiolabeled ligand bound in the presence of 1 µM somatostatin-14) [2]: 225 cpm | control binding (radiolabeled ligand bound in the absence of inhibitor) [3]: 1420 cpm | control binding (radiolabeled ligand bound in the absence of inhibitor) [4]: 2080 cpm
Substance: [125I]iodo-Tyr11-somatostatin-14 (from UniProt P61278) (peptide)
